The text below walks through data of US20220289850 (published 2022).

For orientation: Kd means the free concentration of one partner at which half of the binding sites on the other are occupied at equilibrium, for simple one-to-one binding.

This test has as its target T1, human integrin avb8 (human).
T1 chain 1: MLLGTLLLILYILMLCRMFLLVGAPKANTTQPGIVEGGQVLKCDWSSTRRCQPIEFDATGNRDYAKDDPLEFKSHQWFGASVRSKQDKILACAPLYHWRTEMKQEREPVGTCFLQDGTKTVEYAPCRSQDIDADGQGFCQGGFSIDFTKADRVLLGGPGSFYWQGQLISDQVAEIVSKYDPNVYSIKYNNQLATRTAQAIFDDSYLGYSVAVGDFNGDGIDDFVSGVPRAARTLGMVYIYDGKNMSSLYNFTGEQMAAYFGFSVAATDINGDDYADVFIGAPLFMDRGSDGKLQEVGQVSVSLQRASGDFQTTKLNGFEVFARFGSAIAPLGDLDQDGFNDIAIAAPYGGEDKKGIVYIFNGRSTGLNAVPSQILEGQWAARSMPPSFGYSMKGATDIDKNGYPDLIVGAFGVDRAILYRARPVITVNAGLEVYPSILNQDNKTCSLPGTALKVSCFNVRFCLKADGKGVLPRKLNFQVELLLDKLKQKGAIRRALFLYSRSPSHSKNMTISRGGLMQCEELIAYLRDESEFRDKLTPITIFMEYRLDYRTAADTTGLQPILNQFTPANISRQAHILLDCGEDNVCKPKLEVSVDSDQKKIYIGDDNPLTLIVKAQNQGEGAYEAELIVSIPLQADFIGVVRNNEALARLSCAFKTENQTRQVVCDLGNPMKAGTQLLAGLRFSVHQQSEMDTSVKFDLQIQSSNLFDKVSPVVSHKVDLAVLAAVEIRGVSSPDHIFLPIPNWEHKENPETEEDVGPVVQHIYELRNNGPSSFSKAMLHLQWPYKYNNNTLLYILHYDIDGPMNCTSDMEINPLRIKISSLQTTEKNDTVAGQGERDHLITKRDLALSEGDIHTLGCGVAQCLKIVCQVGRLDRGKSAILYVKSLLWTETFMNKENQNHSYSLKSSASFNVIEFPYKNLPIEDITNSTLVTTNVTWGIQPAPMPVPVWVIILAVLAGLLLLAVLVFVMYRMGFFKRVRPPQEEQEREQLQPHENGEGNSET
T1 chain 2: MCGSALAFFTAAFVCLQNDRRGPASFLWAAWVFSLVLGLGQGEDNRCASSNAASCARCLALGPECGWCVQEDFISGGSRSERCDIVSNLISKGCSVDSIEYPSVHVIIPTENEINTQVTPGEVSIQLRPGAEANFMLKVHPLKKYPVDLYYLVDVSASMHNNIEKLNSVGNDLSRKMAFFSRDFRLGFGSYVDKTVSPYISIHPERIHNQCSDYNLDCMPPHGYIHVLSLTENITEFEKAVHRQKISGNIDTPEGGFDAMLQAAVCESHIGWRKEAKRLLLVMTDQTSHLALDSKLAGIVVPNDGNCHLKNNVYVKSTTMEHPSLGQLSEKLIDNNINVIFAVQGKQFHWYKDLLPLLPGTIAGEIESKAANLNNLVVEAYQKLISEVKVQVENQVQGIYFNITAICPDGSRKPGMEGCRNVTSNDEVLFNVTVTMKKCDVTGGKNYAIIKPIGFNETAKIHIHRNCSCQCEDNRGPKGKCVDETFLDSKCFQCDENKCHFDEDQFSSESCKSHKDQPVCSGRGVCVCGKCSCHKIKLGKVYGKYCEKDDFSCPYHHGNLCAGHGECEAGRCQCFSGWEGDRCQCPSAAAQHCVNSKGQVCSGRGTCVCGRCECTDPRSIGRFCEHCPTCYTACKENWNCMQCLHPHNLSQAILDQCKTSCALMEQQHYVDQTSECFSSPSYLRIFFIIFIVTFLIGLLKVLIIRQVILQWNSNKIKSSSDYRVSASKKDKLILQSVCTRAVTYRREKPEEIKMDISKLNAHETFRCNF
Description: SPR. On the technique in general: In SPR one partner is held on a chip, and binding of the other changes the refractive index at the surface.

B1: ADWA11 2.4 Fab (antibody, V domains shown)
VH: EVQLVESGGGLVQPGGSLRLSCAASGFNIKDYYMNWVRQAPGKGLEWVGWIDPDQGNTIYEPKFQGRFTISADTSKNSAYLQMNSLRAEDTAVYYCARRLLMDYWGQGTLVTVSS
VL: DIQMTQSPSSLSASVGDRVTITCRSTKSLSHFNGNTYLFWYQQKPGKAPKRLIYYMSSLASGVPSRFSGSGSGTDFTLTISSLQPEDFATYYCQQSLEYPFTFGGGTKVEIK
B1 returned a Kd of under 0.1 nM.
